In the supplement of paper PMC9170038:

Test system: K4 kissing-loop RNA reporter
Experiment: apparent KD of K4 kissing-loop reporter; higher = weaker reporter binding
Conditions: Eterna round: R107
Experimental: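 RNA-MaP round R107: designed RNA switches with theophylline, tryptophan, arginine or FMN aptamers are transcribed on-chip within common flanks. They are titrated with a labelled K4 kissing-loop RNA reporter in RNA-MaP buffer (100 mM Tris pH 7.5, 80 mM KCl, 4 mM MgCl2), without ligand or with the indicated ligand. Median apparent KD per design.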

[1] = input ligand: theophylline 20 uM
[2] = input ligand: tryptophan 2.4 mM
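Note: bound reporter read as fluorescence of individual clusters on recovered sequencing chips by microscopy, with normalized cluster intensities fitted with a binding model.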

Sequence | apparent KD of K4 kissing-loop reporter (input ligand: FMN 200 uM) [nM] | apparent KD of K4 kissing-loop reporter (input ligand: arginine 13.2 mM) [nM] | apparent KD of K4 kissing-loop reporter (input ligand: none) [nM] | apparent KD of K4 kissing-loop reporter [1] [nM] | apparent KD of K4 kissing-loop reporter [2] [nM]
CCCUCACGAGUGAUGUUCGUAGGGUACAGUCAGGAUAUCAUGCGGUUGAGAAGGGACAGAGAGGGCGGCCACUGGUUGCUCUUCU [Tiatesqu] | 150 | 249 | 235 | 418 | 200
UUUGCAAAGUCGGCCGCCACUCCGGGCCCUAUAAAUGGGCGCAGUGAUGUUGCGGCUAGGCCUCUGAGGACCGGGACUUUGUAAA [Inusleve] | 151 | 52.1 | 52.3 | 77.2 | 179
GUUACGCAUGGAAGGAGCGCUCUCAUACUUAAUAACACAGUGAUGUUGUGAAUUUGUAUAAAGCAGGUAGGUCGCCAUGUGUAAC [Ex Arginine B K4 7] | 417 | 323 | 424 | 379 | 346
CGCGCGCGCCGCAAGGCGCGCGCGAACGAUACCAGUAUAUAAGAAUACCCUUGGCAGCGUAAGAAAGCUAUAGUGAUGUUGUAGA [#19 K4 Theophylline A Same State] | 254 | 121 | 226 | 265 | 273
UGACUACAAAAGGAAUAAUCCUAGUGAUGUUAGGAUAUGCUGAUAAGCAGAAGGAACGGAGAUCGAAAGAUCUCAUAUGUAGUCU [whbob_Ex_FMNA__2th192] | 141 | 87.4 | 82.8 | 98.5 | 87.4
AUGUCUGAUAGCAGUGAUGUUGCUUCAGAUACCAGACGAGAUCAUGUCCCUUGGCAGCUGACACGGCACGUGCUAGGUUAGAUGA [whbob_Ex_Theo_A_th71] | 117 | 94.4 | 118 | 102 | 102
GUAGACGUACCUUCAGUGAUGUUGAAGGAUACCAGAUGUUAUCACAUCCCUUGGCAGCCUUGGGAUAACAGUGAGUCGGAAUAUG [Essoaran] | 170 | 142 | 184 | 159 | 168
UUAGCUCUAUAGAGCAAGAGGUCAACUGAUACCAGAGGCUAUAGCCUCCCUUGGCAGCGGAACGAGUGAUGUUCGAGACCUCAUU [AK6 SS Theophylline A] | 1280 | 816 | 1560 | 750 | 1440
CUGACCAACAGCGAUACCAGUGUGGAGUGAUGUUCCCUGGUCCGGGCUGAUGUUCCCUUGCGCCCUUGGCAGCGCAGAAGCAGGU [Exclusion Theophylline B GF 13] | 433 | 295 | 359 | 349 | 338
UGACUGGACUGAAGGAGCGGGCGAGACAAAGUCUCGAACUCCUAGUGAUGUUAGGAAAUAACCCAGGUAGGUCGCAGUCUAGUCU [ArgBS 7 #SwitchBubble #StaticStem #DoubleMagnet] | 149 | 104 | 128 | 136 | 137
GGCAGUGAUGUUGCCUAAGCAAUGCAUGCGGAGGAUAUUCGUUUGGGAAGAAGGCCGCAGCGUUCUCUCGAGUGAUGUUCGAGUA [Same State FMN A GF 20] | 155 | 141 | 153 | 158 | 126
GGUAGCAUGGCGGCCGCCACUACCUAGUGAUGUUAGGCUGUGGACAUAGGAGCAAGACAAAUAUGUAGGACCGGGCCAUGCUACC | 126 | 92.8 | 111 | 124 | 131
GUGCAGUGAUGUUGCACGAGGAAAGACGAUACCAGCCGUAAAUAAGGCCCUUGGCAGCGUGGGCUAGCAUAAAGUACGCUAGUCU [Mara] | 111 | 115 | 109 | 94 | 97.1
AGUCCACUCUAAAGAGUGGACCUAAGGGAUACCAGUGAUGUUGGUCACCCUUGGCAGCCCACUGUCAUCGAUAAAGAUGGCAGAA | 120 | 98.1 | 114 | 122 | 116
AUUUUCAUUUUAUUAUAUAACUUUUCAGAAGGAGCGUGGAAGUUCACAGGUAGGUCGCUGAAUAUUGGACUAGUGAUGUUAGUUA [JR_Nu_SSArginiA_Sub022] | 202 | 244 | 230 | 259 | 207
AGGAGCGUGGGAUGAAAAUCGCACGCUCCUCGAGGACCGGUACGGCCGCCACUCGCUCGCGCCGAGUGAUGUUCGGCCGGCGAAC [#2 Same State - Tryptophan A Attempt #12 (HarryS)] | 265 | 244 | 312 | 217 | 556
CGCAGUGAUGUUGCGAGCAGCUACAGGGAAGGAGCGCUUUAGUAAGCAGGUAGGUCGCCCACGCAGUGAUGUUGCGUCAUAGGGU [Exclusion Arginine A GF 20] | 158 | 123 | 117 | 100 | 111
AAAAGAAGAAGUGAUACCAGACAAGCAGUGAUGUUGCGCCAAAGUGAGUGAUGUUCACCAGUCCCUUGGCAGCACAUGCCAAAAG [Same State Theophylline B GF 5] | 520 | 927 | 668 | 839 | 933
GGACGACAGUCGGCCGCCACUCACAGCCGCCAGUGAUGUUGGAUUGUAGCGGAGUGAUGUUUCGCGAGGACCGGGACUGCAGUCC [Same State Tryptophan B GF 15] | 417 | 380 | 455 | 413 | 460
AAGAGUUGACGAAAAGUCAACUCACGAGAAGGAGCGCACGAAAGUGCAGGUAGGUCGCUCAGUCCAGUGAUGUUGGAACAUAAAA [#OpenEnded 7] | 66.2 | 114 | 96.1 | 110 | 73.3
CAUUCGAAAUGCAGUGAUGUUGCAACCGAUACCAGUAUCGAAAGAUACCCUUGGCAGCGGAAAACCGCUACGUAUUUUUUGAAUG [Ex Theophylline A K4 26] | 204 | 288 | 276 | 243 | 237
AGGUCCGAGCCCGGAAGGGCUCGGACCUGUUAGGAUAUGACGUUAUUCAGAAGGGAUGGGUGGAGUGAUGUUCCACCCGCAAGGG [#2 Same State - FMN A Attempt #9 (HarryS)] | 70 | 96.3 | 111 | 102 | 86.5

Sequence | apparent KD of K4 kissing-loop reporter (input ligand: FMN 200 uM) [nM] | apparent KD of K4 kissing-loop reporter (input ligand: arginine 13.2 mM) [nM] | apparent KD of K4 kissing-loop reporter (input ligand: none) [nM] | apparent KD of K4 kissing-loop reporter [1] [nM] | apparent KD of K4 kissing-loop reporter [2] [nM]
GGAUAGGACUGAGGAUAUGGGCUAGGCAAGAAUAACUUGUCUAGCAAAUCCAUGAGGAGUGAUGUUCCAGAAGGCGGUCCUAUCG [FmnBX 1 U10+G76] | 601 | 127 | 131 | 173 | 231
UGGCAAGUGAUGUUUGCGUUUCCGCAGGAUACCAGUCUGUCUUGAGACCCUUGGCAGCCUGGGUACAGUCCAAGCGGUCACACGA [theeternabot_exclusion_KL_Theo_A_38] | 371 | 297 | 405 | 375 | 285
AGGAUCACGUCAGUGAUGUUGACAAGAGAUACCAGAGACGAAAGUCUCCCUUGGCAGCUCACUGUGAUCCGUGACAAAGGUCACA [Omei KL hio A SS C v1] | 146 | 63.2 | 98.3 | 154 | 76
UUUACUCCGAGUGAUGUUCGGCGUAUCUGACGAGGACCGGUACGGCCGCCACUCGGUUCGACUACGAAGGCCUUGGCCACAGAUU | 268 | 174 | 257 | 284 | 285
UUUGGAUUGCACUAAGAGCGCAAGCGCCAACGAGGACCGGUACGGCCGCCACUCGCGGAGGAGUCCAGUGAUGUUGGACGGCCCG [Onenusan] | 233 | 359 | 359 | 180 | 172
CCUAUCUCAUACGAUACCAGUGAAUUUAUAUUUAUUAGCAGUGAUGUUGCAUUCCAAGUACACCCUUGGCAGCGUAUGGGAUAGG [Ex Theophylline B K4 22] | 147 | 204 | 178 | 172 | 140
CGCCACGACUGAAGGAGCGCGCCAGUGAUGUUGGACGGCUUUGUCAAGGAAACUGCACCGGUGCAGGUAGGUCGCAGUUCGUGGU [Quisbiri] | 398 | 421 | 537 | 588 | 362
GCGCGCGGCGGAGGAUAUAGCAGGUGAUCCGAGAAAGUGAGUGAUGUUUACGGAGAUGAUGAUAUGUUAGAAGGCCGCCGCGCGC [abcdefghijklmnopqrstuv] | 515 | 416 | 437 | 425 | 558
GCCGUACGCAUGGAUACCAGUCUUAGAGUGAUGUUCUAAACGAUUGCGCCUGGAUCAAUGGACCCUUGGCAGCCAUGCGUACGGC | 130 | 119 | 129 | 92.4 | 154
GCGCGGCCCAGUGAUGUUGGGCCUCGGAGACGAGGACCGGUACGGCCGCCACUCGUCCGCGCAGCUGAGGCAAAAGCCUCGGCAA [Omei KL Tryp A SS B v6] | 207 | 190 | 228 | 187 | 107
CCGAAGAACCAGUGAUGUUGGUUGACUAGACAGGAUAUGAGCAACAUCAGAAGGGUCUGGCUUCGGGAGUGGGUCACGCUGACCU [Iserreanor] | 271 | 282 | 426 | 912 | 808
GCCGUAGAUUGAAGGAGCGGUAUGGGCGUUGGCUGAGUGAUGUUCAGGAAAAGUGGCUUCUACCAGGUAGGUCGCAAUCUACGGC | 133 | 110 | 130 | 139 | 109
GCCGUACGCAUGGAUACCAGCAUUUAUGACACACUGCUAGUGAUGUUAGCUAUGCGUAUAUGCCCUUGGCAGCCAUGCGUACGGC | 150 | 128 | 140 | 87.4 | 133
AUUAUAUAAUGGAGUGAUGUUCCAUCAGAUACCAGUGAAUUUGAACACCCUUGGCAGCUGUUGUUCAAAUAAUUUAAAUCCUUUA [JR_SSTheophyA_Sub019] | 129 | 150 | 132 | 166 | 103
UUAGCCUAGCCAUAGUGAUGUUGUGGAAUACGAGGACCGGUACGGCCGCCACUCGCUCGACGGUGAUGACAUCAACGACCUUUAU [theeternabot_sameState_KL_Trp_A_38] | 312 | 304 | 311 | 314 | 285
AACUCUCAGGCACCUGAGUGAUGUUCAGGCCGAGGACCGGUACGGCCGCCACUCGGGCCUGAGAGAGGUUAUCAAAGAUAGCCAA [Omei KL Tryp A SS A v2] | 561 | 366 | 528 | 277 | 449
AAGGUCACUGCUACAGUGAUGUUGUGGGAGCAGGAUAUGCUGAAAAGCAGAAGGGCUCGCUCCAGGUGACCGAAUGAAACAUUCA [whbob_SS_FMNA__2th176] | 1140 | 718 | 1290 | 792 | 1110
UUCAGGUGUUCGGCCGCCACUCCAGUGAUGUUGGAGUGGCUUCACAAGGGCCAGGACAAUGUAAGGAGGACCGGGAAUAUCGCAG [Quonerar] | 127 | 116 | 123 | 89.2 | 134
CGCAGUGAUGUUGCUAUUGUUCUUGGUUAACGAGGACCGGUACGGCCGCCACUCGAUGUCUGUCUAGUCCAGUGUUUUUUUGAGU [whbob_EX_Tryp_A_t9] | 513 | 493 | 592 | 571 | 310
AGUGAUGUUUUUUUUAAGAGUGAUGUUUUUCGAGGACCGGUACGGCCGCCACUCGAGUGAUGAGUGCGUUGUUGUGAUGUUUAGU [#11 K4 Tryptophan A Exclusion] | 438 | 362 | 473 | 413 | 246
GUAGAUAGGCAACAUCCCUAGUCUACAGACUAGGAUAUCAGGAAACUGAGAAGGAGUCUCCUUGCAGUGAUGUUGCAAGAAUAAU [[F]''-[K]'-[F]'-[F1]-[F2]-[K1]-[K2]_Design5] | 185 | 181 | 200 | 83.6 | 161
